According to PMC5727384, “A pH-gated conformational switch regulates the phosphatase activity of bifunctional HisKA-family histidine kinases” (Nature Communications, 2017):
Substitutions are numbered along the chain they refer to. In names and notes the source's numbering stands.

T1: HK853^cp-BeF3 ^−-RR468 complex (nucleotide site of HK853^cp) (Thermotoga maritima, UniProt Q9WZV7)
T1 construct: gene TM_0853; HK853 cytoplasmic portion (DHp and CA domains, residues 232-489), with RR468; heterotetramer of two HK853cp and two RR468; expressed in E. coli; with Response regulator
T1 sequence (Q9WZV7 232-489): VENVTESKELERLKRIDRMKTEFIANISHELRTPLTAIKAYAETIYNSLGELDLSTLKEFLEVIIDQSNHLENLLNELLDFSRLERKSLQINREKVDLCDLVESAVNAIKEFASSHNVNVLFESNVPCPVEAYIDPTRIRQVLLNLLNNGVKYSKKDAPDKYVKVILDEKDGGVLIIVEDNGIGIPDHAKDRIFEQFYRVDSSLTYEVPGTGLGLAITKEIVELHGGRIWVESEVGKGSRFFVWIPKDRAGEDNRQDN
T1 sequence (Q9WYT9 1-122 partner): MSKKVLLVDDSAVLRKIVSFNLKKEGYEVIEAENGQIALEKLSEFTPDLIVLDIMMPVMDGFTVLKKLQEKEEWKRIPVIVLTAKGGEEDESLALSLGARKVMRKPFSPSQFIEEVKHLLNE

B1: DHp domain of HK853 (HK853^DHp), wild type, residues 250–315 (domain or fragment, Thermotoga maritima, UniProt Q9WZV7 250-315, looked up)
chain: MKTEFIANISHELRTPLTAIKAYAETIYNSLGELDLSTLKEFLEVIIDQSNHLENLLNELLDFSRL
notes: Histidine kinase HK853, Thermotoga maritima, dimerization and histidine-containing phosphotransfer (DHp) domain, residues 250–315; also called wild-type HK853^DHp; not shown: His6, N-terminal, cleaved; MBP, N-terminal, cleaved
B2: H260A mutant of the DHp domain of HK853 (H260A HK853^DHp), residues 250–315 (domain or fragment, Thermotoga maritima, UniProt Q9WZV7 250-315, looked up)
chain: B1 chain with H11A
notes: Histidine kinase HK853, Thermotoga maritima, DHp domain, residues 250–315, with H260A; not shown: His6, N-terminal, cleaved; MBP, N-terminal, cleaved
B3: T264A mutant of the DHp domain of HK853 (T264A HK853^DHp), residues 250–315 (domain or fragment, Thermotoga maritima, UniProt Q9WZV7 250-315, looked up)
chain: B1 chain with T15A
notes: Histidine kinase HK853, Thermotoga maritima, DHp domain, residues 250–315, with T264A; also called T264A HK853 mutant; not shown: His6, N-terminal, cleaved; MBP, N-terminal, cleaved
B4: Cytoplasmic portion of HK853 (HK853^cp), wild type, residues 232–489 (domain or fragment, Thermotoga maritima, UniProt Q9WZV7 232-489, looked up)
chain: T1 sequence (Q9WZV7 232-489)
notes: Histidine kinase HK853, Thermotoga maritima, cytoplasmic portion (DHp and CA domains), residues 232–489; Crystallised with AMPPNP, which was captured as ADP; also called wild-type HK853^cp; source: E. coli BL21(DE3) Gold, purified (ammonium sulfate precipitation, anion-exchange, size-exclusion)
B5: BeF3−-RR468 (BeF3−-conjugated form of the response regulator RR468 from Thermotoga maritima) (natural protein)
chain: T1 sequence (Q9WYT9 1-122 partner)
modifications: BeF3− on D53 (beryllium atom forming a covalent bond with the phosphate-accepting residue D53; phosphoryl analog)
notes: Response regulator RR468, cognate response regulator of HK853, Thermotoga maritima; Generated by adding 5 mM BeCl2 and 50 mM NaF to RR468 (NMR) or 5 mM BeCl2 and 30 mM NaF (crystallisation); Mg2+ in the active site; source: E. coli BL21(DE3) Gold, purified (incubation at 60 °C, anion-exchange, size-exclusion); BeF3− added as BeCl2 and NaF
B6: T264A mutant of the cytoplasmic portion of HK853 (T264A HK853^cp) (domain or fragment, Thermotoga maritima, UniProt Q9WZV7 232-489, looked up)
chain: T1 sequence (Q9WZV7 232-489) with T33A
notes: Histidine kinase HK853, Thermotoga maritima, cytoplasmic portion (residues 232–489 as stated for HK853^cp), with T264A; also called HK853^cp T264A mutant

Experiments:
[1] = molecular target: T1, HK853^cp-BeF3 ^−-RR468 complex (nucleotide site of HK853^cp); experiment: X-ray crystal structure, […] A; format: binding; settings: pH 5.0; Mg2+; crystallised with 4 mM AMPPNP, hydrolysed to ADP; ATP site of HK853 CA domain
[2] = molecular target: T2, HK853^cp-BeF3 ^−-RR468 complex (active site of RR468) (Thermotoga maritima, UniProt Q9WYT9); settings: pH 5.0; Mg2+; covalent to D53 of RR468
T2 construct: gene TM_0468

[3] = molecular target: T3, HK853^DHp-BeF3 ^−-RR468 complex (Thermotoga maritima, UniProt Q9WYT9); settings: pH 7.0; Mg2+; 298 K; covalent to D53 of RR468; 10-fold excess of HK853 DHp
T3 construct: gene TM_0468

RR468 = molecular target: T4, RR468 (Thermotoga maritima, UniProt Q9WYT9); settings: pH 7.0; Mg2+; 298 K; covalent Be bond to D53; formed from 5 mM BeCl2 and 50 mM NaF
T4 construct: gene TM_0468

[4] = molecular target: B5; experiment: NMR titration; 19F NMR of BeF3−-RR468, HK853^DHp or mutants added at a concentration 10-fold higher than BeF3−-RR468; pH 7.0; 20 mM HEPES, 50 mM KCl, 10 mM MgCl2; 298 K; settings: both partners purified
[5] = molecular target: the molecule itself; experiment: crystal structure; HK853^cp (wild type or T264A) with RR468, BeF3− and AMPPNP (captured as ADP), crystallised at pH 5.0 (citric acid, ammonium sulfate)
[6] = molecular target: B4; experiment: as above; settings: both partners purified
[7] = molecular target: B6; experiment: as above; settings: both partners purified

Molecule: Nc1ncnc2c1ncn2[C@@H]1O[C@H](COP(=O)(O)OP(=O)(O)O)[C@@H](O)[C@H]1O [ADP]
X-ray crystal structure, 2.68 A [1]: The AMPPNP is captured in the hydrolyzed form of ADP

Molecule: [F][Be-]([F])[F] [BeF3 ^−]
X-ray crystal structure, 2.68 A [2]: reveals a heterotetrameric complex consisting of two HK853^cp and two BeF3 ^−-RR468
19F NMR [3]: indicating the formation of the HK853^DHp-BeF3 ^−-RR468 complex
19F NMR (RR468): we were able to detect three broad fluorine signals from the protein-bound BeF3 ^−

Molecule: B1
binding result [4]: binds

Molecule: B2
binding result [4]: binds

Molecule: B3
binding result [4]: binds

Molecule: B4
binding result [5]: binds

Molecule: B5
binding result [6]: binds
binding result [7]: binds

Molecule: B6
binding result [5]: binds
